Laboratory results reported in article doi:10.1101/255976.

Experiments:
BRCA1 = BRCA1 (human, UniProt P38398 1-1863); assay: EMSA
BRCA1;BARD1 = BRCA1;BARD1 (human;human, UniProt P38398;Q99728 1-1863;1-777, |); assay: EMSA

B1: 50 bp DNA:RNA hybrid X12-3 DNA/X12-4C RNA (DNA:RNA)
DNA: GACGTCATAGACGATTACATTGCTAGGACATGCTGTCTAGAGACTATCGC
RNA: GCGAUAGUCUCUAGACAGCAUGUCCUAGCAAUGUAAUCGUCUAUGACGUC
BRCA1
  binding result: binds
BRCA1;BARD1
  binding result: binds
